Reference: patent US20230103618A1 (FRED HUTCHINSON CANCER CENTER, published 2023)
No end group written: not given here.

Target: T1, TrkB.T1 peptide FVLFHKIPLDG (not fully specified)
T1 construct: also called target peptide
T1 peptide: FVLFHKIPLDG
Assay: bead-based flow cytometry, peptide on beads
Source text: Murine monoclonal antibody (clone FH1D12) was generated at the Fred Hutchinson Antibody Technology Core Facility. Briefly, male and female 20-week-old C57BL6 mice that were characterized as genetic null for TrkB.T1 (Dorsey, S. G. et al.) In vivo restoration of physiological levels of truncated TrkB.T1 receptor rescues neuronal cell death in a trisomic mouse model. Neuron 51, 21-28 (2006)) were immunized with TrkB.T1 peptide Ac—C(dPEG4)[…]-OH (SEQ ID NO:1) maleimide coupled to KLH carrier protein. Following a 12+ week boosting protocol splenocytes were isolated from high titer mice and electrofused to a subclone of the P3x63-Ag8 myeloma cell line (BTX, Harvard Apparatus). Hybridomas secreting peptide specific antibody were identified and isolated using a ClonePix2 (Molecular Devices, CPII) colony picker. Antibodies from the picked clones were validated for peptide binding by flow cytometry using a cytometric bead array carrying the target peptide. Clone FH1D12 was subcloned (CPII) followed by validation for peptide binding by bead-based flow cytometry. Affinity purified IgG2b lambda from the hybridoma was further characterized by Western blot analysis and IHC tissue staining. Antibody development was performed in Holland Lab and with the Antibody Technology Resource (Fred Hutchinson Cancer Research Center).

B1: Murine monoclonal antibody (clone FH1D12) to TrkB.T1 (antibody, V domains shown)
VH: VQLQQSGPELARPWASVKISCQAFYTFSRGIHFDIRNTMYWIQWVKQRPGQGLEWIGAIYPGNGDPTYSQNFKDKATLTADKSSNTAYMQLSSLTSEDSAVYYCARYDYGGGFTYWGQGTLVTVSA
VL: QTVVTQESALTTSPGETVTLTCRSSTGAVTTSNYANWVQEKPDHLFTGLIGGINNRAPGVPARFSGSLIGDKAVLTITGAQTEDEAIYFCALWYSNHWVFGGGTKLTVL
notes: also called SPEH1_D12; antibody clone D12
binding result: binds
